# Test results as given in article PMC12348683.
# T1: KwaB (O55) (Escherichia coli O55, UniProt P0DW46 1-315)
# T1 sequence: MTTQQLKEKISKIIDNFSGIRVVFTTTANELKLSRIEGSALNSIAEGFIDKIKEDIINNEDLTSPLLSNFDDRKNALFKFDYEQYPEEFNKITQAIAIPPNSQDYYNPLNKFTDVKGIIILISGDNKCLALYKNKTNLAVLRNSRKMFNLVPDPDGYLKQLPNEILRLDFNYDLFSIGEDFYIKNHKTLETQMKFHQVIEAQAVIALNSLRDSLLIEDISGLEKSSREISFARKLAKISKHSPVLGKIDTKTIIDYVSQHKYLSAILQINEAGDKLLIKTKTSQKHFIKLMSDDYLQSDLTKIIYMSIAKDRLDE
# B1: 72-bp dsDNA (dsDNA)
# DNA 1: TGGTTTTTATATGTTTTGTTATGTATTGTTTATTTTCCCTTTAATTTTAGGATATGAAAACAAGAATTTATC
# DNA 2: GATAAATTCTTGTTTTCATATCCTAAAATTAAAGGGAAAATAAACAATACATAACAAAACATATAAAAACCA
# Biological target: T1, KwaB (O55)
# Assay: EMSA
binder,measurement,value
B1,binding result,binds
